Results on five molecules are retold here after paper PMC4871238 (Nature structural & molecular biology, 2015).

B1: Dictyostelium discoideum eIF6 (eukaryotic initiation factor 6), endogenous (natural protein)
chain: not shown
B2: Dictyostelium discoideum ribosomal protein uL11 (L12) (natural protein)
chain: not shown
B3: Dictyostelium discoideum ribosomal protein eL24 (L24) (natural protein, UniProt Q54VN6 1-127, looked up)
chain: MKTSLCNYSEFKIYPARGMKFVRGDSKVFHFINTKVESLFFRKINPRDIRWSMVYRRIYKNTTTDVSAKKKARKTKKVERNIVGASLEVIQQKRAQKPEVKQAAAEQAKREIKEKKKAAAKKAAPKK
B4: Dictyostelium discoideum ribosomal protein uL16 (L10) (natural protein, UniProt Q54J69 1-217, looked up)
chain: MGRRPARCYRYCKNKPYIKSRYCRGVPDAKIRIFDLGRKKASTDEFPLCVHLISLEKEQLSSEAIEAGRISCNKYISKTGGKDSFHMRVRVHPWHVLRINKMLSCAGADRLQTGMRGAFGKPMGTVARVNIGQIIFSIRTRDNMLANVVEALRRSSYKFPGRQKIVVSKKWGFTAYNREAYQKLKADGRLMNDGANVKVITNHGTLAQYAKDIAAAN
B5: Dictyostelium discoideum ribosomal protein uL14 (L23) (natural protein)
chain: not shown

Holding throughout (test): cryo-EM structure
Assay [1] concerns the target Dictyostelium discoideum ribosomal protein uL3 (L3) (Dictyostelium discoideum, UniProt P34113 1-398).
For assay [2], the target named is T1, human SBDS (Shwachman-Bodian-Diamond syndrome protein) (human, UniProt Q9Y3A5 1-250).
T1 sequence: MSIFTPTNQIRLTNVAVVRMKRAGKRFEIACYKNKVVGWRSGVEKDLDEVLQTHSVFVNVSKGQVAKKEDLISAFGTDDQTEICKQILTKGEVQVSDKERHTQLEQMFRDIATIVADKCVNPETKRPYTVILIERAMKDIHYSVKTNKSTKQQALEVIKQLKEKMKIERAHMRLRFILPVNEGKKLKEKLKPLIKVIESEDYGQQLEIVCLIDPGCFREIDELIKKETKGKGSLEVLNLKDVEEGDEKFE

For assay [3], the target named is B1.

Dictyostelium discoideum ribosomal protein uL3 (L3), sequence (P34113 whole entry): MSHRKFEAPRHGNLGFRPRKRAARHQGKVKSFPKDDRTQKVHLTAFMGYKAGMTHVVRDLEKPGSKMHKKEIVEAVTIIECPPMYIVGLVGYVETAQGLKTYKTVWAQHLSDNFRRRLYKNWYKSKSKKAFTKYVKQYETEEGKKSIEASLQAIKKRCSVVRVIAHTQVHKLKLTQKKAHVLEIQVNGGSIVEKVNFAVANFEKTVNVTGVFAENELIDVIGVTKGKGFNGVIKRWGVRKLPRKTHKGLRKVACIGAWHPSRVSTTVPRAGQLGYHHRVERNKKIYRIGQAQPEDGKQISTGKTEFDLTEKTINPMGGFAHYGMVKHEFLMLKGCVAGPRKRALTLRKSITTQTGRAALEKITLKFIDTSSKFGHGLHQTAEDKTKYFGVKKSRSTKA

For B1, the binding result in assay [1] was “binds”.
For B2, the binding result in assay [2] is “binds”.
Regarding B3, in assay [3], the binding result was “binds”.
For B4, the binding result in assay [2] is on record as “binds”.
As to B5, the binding result in assay [3] was “binds”.
